Measurements reported in patent publication US20260055162A1.

Tests used:
Experiment in all cases: cell-based or functional assay
[1] = target: AA-TGFB-021 (TGFB-021), TGF-BR2 ECD-CD28 TM-CD3z ICD
[2] = target: AA-TGFB-051 (TGFB-051), TGF-BR2 ECD-CD28 TM-DAP10v2 ICD
[3] = target: AA-TGFB-052 (TGFB-052), TGF-BR2 ECD-CD28 TM-41BB ICD
[4] = target: AA-TGFB-057 (TGFB-057), TGF-BR2 ECD-CD28 Long TM-MYD88 ICD
[5] = target: AA-TGFB-059 (TGFB-059), TGF-BR2 ECD-CD28 Long TM-TRAF1 ICD
[6] = target: AA-TGFB-060 (TGFB-060), TGF-BR2 ECD-CD28 Long TM-TRAF2 ICD
AA-TGFB-060 (TGFB-060), TGF-BR2 ECD-CD28 Long TM-TRAF2 ICD, sequence (chain, as listed by the source limits assumed, form in doubt): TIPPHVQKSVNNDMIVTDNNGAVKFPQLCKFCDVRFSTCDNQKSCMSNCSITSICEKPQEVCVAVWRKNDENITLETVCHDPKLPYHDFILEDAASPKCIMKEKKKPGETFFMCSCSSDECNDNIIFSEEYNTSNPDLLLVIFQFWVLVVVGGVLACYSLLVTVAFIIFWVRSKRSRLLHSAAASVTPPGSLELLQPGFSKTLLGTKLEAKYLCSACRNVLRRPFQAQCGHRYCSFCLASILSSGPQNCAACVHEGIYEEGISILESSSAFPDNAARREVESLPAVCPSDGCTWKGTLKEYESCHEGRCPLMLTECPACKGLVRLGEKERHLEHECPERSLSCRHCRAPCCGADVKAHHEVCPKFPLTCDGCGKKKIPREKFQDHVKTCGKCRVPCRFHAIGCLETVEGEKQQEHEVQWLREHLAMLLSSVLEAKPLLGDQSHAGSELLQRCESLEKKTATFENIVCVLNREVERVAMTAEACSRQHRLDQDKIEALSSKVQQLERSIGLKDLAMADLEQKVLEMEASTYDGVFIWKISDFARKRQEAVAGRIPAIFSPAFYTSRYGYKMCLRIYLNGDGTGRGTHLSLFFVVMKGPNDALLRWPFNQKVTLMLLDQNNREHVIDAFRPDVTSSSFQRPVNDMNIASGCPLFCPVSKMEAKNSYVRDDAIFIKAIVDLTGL

[7] = target: AA-TGFB-064 (TGFB-064), TGF-BR2 ECD-CD28 Long TM-TIRAP ICD
AA-TGFB-064 (TGFB-064), TGF-BR2 ECD-CD28 Long TM-TIRAP ICD, sequence (chain, as listed by the source limits assumed, form in doubt): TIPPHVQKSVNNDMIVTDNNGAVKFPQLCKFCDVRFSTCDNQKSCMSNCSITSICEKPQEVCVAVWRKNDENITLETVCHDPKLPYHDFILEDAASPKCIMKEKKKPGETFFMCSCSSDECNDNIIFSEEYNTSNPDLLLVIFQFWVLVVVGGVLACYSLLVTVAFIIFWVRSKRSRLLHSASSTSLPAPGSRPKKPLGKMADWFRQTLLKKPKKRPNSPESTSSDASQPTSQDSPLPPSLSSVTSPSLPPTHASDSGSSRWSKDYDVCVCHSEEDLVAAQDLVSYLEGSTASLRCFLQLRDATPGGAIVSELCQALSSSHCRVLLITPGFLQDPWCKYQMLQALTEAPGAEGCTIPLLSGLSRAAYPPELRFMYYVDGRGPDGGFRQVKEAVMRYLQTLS

[8] = target: AA-TGFB-065 (TGFB-065), TGF-BR2 ECD-CD28 Long TM-BLNK ICD
AA-TGFB-065 (TGFB-065), TGF-BR2 ECD-CD28 Long TM-BLNK ICD, sequence (chain, as listed by the source limits assumed, form in doubt): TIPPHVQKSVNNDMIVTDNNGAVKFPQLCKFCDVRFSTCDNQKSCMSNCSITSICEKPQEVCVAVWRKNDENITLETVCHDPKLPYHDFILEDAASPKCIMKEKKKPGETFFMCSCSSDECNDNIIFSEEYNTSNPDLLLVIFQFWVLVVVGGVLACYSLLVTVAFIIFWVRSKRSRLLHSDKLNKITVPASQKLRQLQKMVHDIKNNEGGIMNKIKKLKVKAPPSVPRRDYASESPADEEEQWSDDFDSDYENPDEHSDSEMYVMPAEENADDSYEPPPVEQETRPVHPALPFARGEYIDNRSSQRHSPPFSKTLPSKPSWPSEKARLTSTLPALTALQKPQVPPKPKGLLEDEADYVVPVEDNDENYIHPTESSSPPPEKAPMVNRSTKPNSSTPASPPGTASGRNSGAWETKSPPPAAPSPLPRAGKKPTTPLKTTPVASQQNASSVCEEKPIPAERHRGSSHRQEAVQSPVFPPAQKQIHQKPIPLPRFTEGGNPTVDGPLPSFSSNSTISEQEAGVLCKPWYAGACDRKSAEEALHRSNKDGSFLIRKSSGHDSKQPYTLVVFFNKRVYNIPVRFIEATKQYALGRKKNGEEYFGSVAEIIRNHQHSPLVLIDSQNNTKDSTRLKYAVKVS

[9] = target: AA-TGFB-067 (TGFB-067), TGF-BR2 ECD-FCGR2A TM-FCGR2A ICD
AA-TGFB-067 (TGFB-067), TGF-BR2 ECD-FCGR2A TM-FCGR2A ICD, sequence (chain, as listed by the source limits assumed, form in doubt): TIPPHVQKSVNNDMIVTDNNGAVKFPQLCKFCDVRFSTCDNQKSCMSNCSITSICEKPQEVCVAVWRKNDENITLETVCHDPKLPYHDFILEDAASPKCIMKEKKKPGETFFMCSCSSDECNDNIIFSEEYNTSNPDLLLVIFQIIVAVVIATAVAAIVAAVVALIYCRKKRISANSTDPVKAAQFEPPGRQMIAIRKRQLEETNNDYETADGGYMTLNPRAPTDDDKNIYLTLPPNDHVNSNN

[10] = target: AA-TGFB-070 (TGFB-070), TGF-BR2 ECD-SLAMF1 TM-SLAMF1 ICD
AA-TGFB-070 (TGFB-070), TGF-BR2 ECD-SLAMF1 TM-SLAMF1 ICD, sequence (chain, as listed by the source limits assumed, form in doubt): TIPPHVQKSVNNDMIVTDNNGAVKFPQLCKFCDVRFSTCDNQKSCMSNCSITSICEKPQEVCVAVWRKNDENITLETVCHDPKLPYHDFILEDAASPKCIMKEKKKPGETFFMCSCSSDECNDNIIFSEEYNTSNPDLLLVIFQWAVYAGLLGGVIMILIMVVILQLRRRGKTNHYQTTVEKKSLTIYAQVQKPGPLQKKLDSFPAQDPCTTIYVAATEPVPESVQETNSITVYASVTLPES

[11] = target: AA-TGFB-072 (TGFB-072), TGF-BR2 ECD-SLAMF6 TM-SLAMF6 ICD
AA-TGFB-072 (TGFB-072), TGF-BR2 ECD-SLAMF6 TM-SLAMF6 ICD, sequence (chain, as listed by the source limits assumed, form in doubt): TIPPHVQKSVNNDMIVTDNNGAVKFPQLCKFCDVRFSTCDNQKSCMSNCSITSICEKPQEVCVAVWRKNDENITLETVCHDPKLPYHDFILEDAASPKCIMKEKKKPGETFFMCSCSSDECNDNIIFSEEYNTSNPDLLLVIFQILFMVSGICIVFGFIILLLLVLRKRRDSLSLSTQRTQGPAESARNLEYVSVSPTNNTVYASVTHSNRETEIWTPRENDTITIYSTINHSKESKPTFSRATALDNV

[12] = target: AA-TGFB-074 (TGFB-074), TGF-BR2 ECD-LFA2 TM-LFA2 ICD
AA-TGFB-074 (TGFB-074), TGF-BR2 ECD-LFA2 TM-LFA2 ICD, sequence (chain, as listed by the source limits assumed, form in doubt): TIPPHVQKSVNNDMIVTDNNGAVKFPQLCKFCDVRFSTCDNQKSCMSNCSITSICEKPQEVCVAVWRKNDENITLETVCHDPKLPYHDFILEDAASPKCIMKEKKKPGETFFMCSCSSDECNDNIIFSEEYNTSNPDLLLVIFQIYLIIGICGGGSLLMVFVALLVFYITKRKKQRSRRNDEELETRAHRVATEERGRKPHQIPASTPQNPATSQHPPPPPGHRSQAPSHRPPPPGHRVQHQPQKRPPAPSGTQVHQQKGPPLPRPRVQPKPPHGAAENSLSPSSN

[13] = target: AA-TGFB-075 (TGFB-075), TGF-BR2 ECD-SLAMF3 TM-SLAMF3 ICD
AA-TGFB-075 (TGFB-075), TGF-BR2 ECD-SLAMF3 TM-SLAMF3 ICD, sequence (chain, as listed by the source limits assumed, form in doubt): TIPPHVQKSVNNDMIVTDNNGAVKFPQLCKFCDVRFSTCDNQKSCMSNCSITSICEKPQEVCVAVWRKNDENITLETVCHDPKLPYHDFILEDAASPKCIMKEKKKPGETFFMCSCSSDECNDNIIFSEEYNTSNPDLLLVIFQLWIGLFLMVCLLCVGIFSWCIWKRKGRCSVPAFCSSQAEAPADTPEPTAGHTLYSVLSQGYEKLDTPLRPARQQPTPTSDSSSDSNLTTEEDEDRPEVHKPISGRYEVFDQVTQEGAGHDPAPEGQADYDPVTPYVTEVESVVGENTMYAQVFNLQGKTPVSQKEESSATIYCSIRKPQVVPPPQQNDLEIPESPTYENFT

[14] = target: AA-TGFB-076 (TGFB-076), TGF-BR2 ECD-EPOR TM-EPOR ICD
[15] = target: AA-TGFB-081 (TGFB-081), TGF-BR2 ECD-ICOS TM-ICOS ICD
AA-TGFB-081 (TGFB-081), TGF-BR2 ECD-ICOS TM-ICOS ICD, sequence (chain, as listed by the source limits assumed, form in doubt): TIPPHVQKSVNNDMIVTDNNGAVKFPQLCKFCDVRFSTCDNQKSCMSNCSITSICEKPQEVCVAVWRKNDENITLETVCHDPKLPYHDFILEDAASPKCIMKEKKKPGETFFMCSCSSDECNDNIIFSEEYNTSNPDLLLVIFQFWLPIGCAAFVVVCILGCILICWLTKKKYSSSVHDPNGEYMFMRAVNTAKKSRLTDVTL

[16] = target: AA-TGFB-091 (TGFB-091), TGF-BR2 ECD-CD28 Long TM-Syk ICD
[17] = target: AA-TGFB-095 (TGFB-095), TGF-BR2 ECD-CD28 Long TM-YES1 ICD

AA-TGFB-021 (TGFB-021), TGF-BR2 ECD-CD28 TM-CD3z ICD, sequence (chain, as listed by the source limits assumed, form in doubt): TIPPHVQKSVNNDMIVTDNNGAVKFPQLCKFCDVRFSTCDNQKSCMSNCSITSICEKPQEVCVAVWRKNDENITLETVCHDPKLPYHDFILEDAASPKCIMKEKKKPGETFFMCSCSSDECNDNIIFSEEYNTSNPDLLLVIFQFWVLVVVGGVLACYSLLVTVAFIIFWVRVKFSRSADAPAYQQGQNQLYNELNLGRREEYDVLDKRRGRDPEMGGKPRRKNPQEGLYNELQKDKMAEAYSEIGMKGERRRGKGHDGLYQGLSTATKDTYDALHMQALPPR
AA-TGFB-052 (TGFB-052), TGF-BR2 ECD-CD28 TM-41BB ICD, sequence (chain, as listed by the source limits assumed, form in doubt): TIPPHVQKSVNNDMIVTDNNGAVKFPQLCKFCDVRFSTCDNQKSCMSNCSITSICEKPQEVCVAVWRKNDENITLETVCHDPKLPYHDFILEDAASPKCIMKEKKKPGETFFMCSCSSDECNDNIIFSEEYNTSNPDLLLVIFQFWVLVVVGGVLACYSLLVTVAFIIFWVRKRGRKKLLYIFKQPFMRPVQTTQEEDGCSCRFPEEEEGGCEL
AA-TGFB-059 (TGFB-059), TGF-BR2 ECD-CD28 Long TM-TRAF1 ICD, sequence (chain, as listed by the source limits assumed, form in doubt): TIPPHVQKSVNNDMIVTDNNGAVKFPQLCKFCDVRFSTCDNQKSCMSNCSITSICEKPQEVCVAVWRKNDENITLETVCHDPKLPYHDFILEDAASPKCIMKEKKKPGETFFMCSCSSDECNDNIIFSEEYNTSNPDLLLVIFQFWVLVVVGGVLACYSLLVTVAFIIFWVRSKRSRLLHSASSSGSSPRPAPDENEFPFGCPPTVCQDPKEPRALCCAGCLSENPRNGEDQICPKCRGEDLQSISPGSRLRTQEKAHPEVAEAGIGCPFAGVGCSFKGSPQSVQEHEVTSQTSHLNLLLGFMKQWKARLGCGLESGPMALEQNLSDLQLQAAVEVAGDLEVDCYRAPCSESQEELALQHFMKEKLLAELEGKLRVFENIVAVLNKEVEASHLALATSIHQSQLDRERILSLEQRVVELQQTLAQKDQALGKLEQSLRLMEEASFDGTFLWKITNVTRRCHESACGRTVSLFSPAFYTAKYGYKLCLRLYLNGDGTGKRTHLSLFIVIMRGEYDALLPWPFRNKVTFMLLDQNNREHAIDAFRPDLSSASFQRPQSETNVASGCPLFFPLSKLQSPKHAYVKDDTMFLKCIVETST
AA-TGFB-057 (TGFB-057), TGF-BR2 ECD-CD28 Long TM-MYD88 ICD, sequence (chain, as listed by the source limits assumed, form in doubt): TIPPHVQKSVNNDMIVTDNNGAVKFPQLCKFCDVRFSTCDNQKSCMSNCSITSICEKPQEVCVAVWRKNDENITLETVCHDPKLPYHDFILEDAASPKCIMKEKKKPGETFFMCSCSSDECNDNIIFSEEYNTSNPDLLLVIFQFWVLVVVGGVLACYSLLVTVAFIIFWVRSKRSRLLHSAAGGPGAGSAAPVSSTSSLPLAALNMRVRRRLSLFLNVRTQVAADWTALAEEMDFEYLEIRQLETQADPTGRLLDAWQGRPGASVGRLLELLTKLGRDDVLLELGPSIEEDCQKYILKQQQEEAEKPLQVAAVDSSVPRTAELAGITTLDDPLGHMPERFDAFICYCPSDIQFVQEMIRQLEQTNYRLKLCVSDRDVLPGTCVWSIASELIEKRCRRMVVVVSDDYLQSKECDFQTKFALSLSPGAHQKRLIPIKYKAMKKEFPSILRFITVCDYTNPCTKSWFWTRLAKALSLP

- 5-Day Fold Expansion of NK cells, 10 ng/mL TGF-B1 [1]: 0.45 fold
- CD69, fold-change of MFI over no stimulation, High (0.05 ug/mL) [1]: 93 fold
- CD69, fold-change of MFI over no stimulation, Low (0.002 ug/mL) [1]: 21.5 fold
- CD69, fold-change of MFI over no stimulation, Med. (0.01 ug/mL) [1]: 62.2 fold
- GFP, fold-change of MFI over no stimulation, High (0.05 ug/mL) [1]: 10.1 fold
- GFP, fold-change of MFI over no stimulation, Low (0.002 ug/mL) [1]: 2.8 fold
- GFP, fold-change of MFI over no stimulation, Med. (0.01 ug/mL) [1]: 9.3 fold
- 5-Day Fold Expansion of NK cells, 10 ng/mL TGF-B1 [2]: 1.42 fold
- Average IFNg Secretion, 10 ng/mL TGF-B1 [2]: 4200 pg/mL
- Average IP-10 Secretion, 10 ng/mL TGF-B1 [2]: 671
- 5-Day Fold Expansion of NK cells, 10 ng/mL TGF-B1 [3]: 1.57 fold
- Average IFNg Secretion, 10 ng/mL TGF-B1 [3]: 8770 pg/mL
- Average IP-10 Secretion, 10 ng/mL TGF-B1 [3]: 976
- 5-Day Fold Expansion of NK cells, 10 ng/mL TGF-B1 [4]: 1.02 fold
- Average IFNg Secretion, 10 ng/mL TGF-B1 [4]: 7770 pg/mL
- Average IP-10 Secretion, 10 ng/mL TGF-B1 [4]: 2760
- 5-Day Fold Expansion of NK cells, 10 ng/mL TGF-B1 [5]: 0.9 fold
- Average IFNg Secretion, 10 ng/mL TGF-B1 [5]: 3060 pg/mL
- Average IP-10 Secretion, 10 ng/mL TGF-B1 [5]: 1300
- 5-Day Fold Expansion of NK cells, 10 ng/mL TGF-B1 [6]: 1.11 fold
- Average IFNg Secretion, 10 ng/mL TGF-B1 [6]: 3070 pg/mL
- Average IP-10 Secretion, 10 ng/mL TGF-B1 [6]: 1230
- 5-Day Fold Expansion of NK cells, 10 ng/mL TGF-B1 [7]: 1.04 fold
- Average IFNg Secretion, 10 ng/mL TGF-B1 [7]: 4790 pg/mL
- Average IP-10 Secretion, 10 ng/mL TGF-B1 [7]: 1540
- 5-Day Fold Expansion of NK cells, 10 ng/mL TGF-B1 [8]: 0.71 fold
- Average IFNg Secretion, 10 ng/mL TGF-B1 [8]: 3130 pg/mL
- Average IP-10 Secretion, 10 ng/mL TGF-B1 [8]: 1030
- 5-Day Fold Expansion of NK cells, 10 ng/mL TGF-B1 [9]: 1.6 fold
- Average IFNg Secretion, 10 ng/mL TGF-B1 [9]: 4640 pg/mL
- Average IP-10 Secretion, 10 ng/mL TGF-B1 [9]: 1040
- 5-Day Fold Expansion of NK cells, 10 ng/mL TGF-B1 [10]: 4.03 fold
- Average IFNg Secretion, 10 ng/mL TGF-B1 [10]: 7690 pg/mL
- Average IP-10 Secretion, 10 ng/mL TGF-B1 [10]: 1630
- 5-Day Fold Expansion of NK cells, 10 ng/mL TGF-B1 [11]: 3.89 fold
- Average IFNg Secretion, 10 ng/mL TGF-B1 [11]: 8700 pg/mL
- Average IP-10 Secretion, 10 ng/mL TGF-B1 [11]: 1880
- 5-Day Fold Expansion of NK cells, 10 ng/mL TGF-B1 [12]: 2.4 fold
- Average IFNg Secretion, 10 ng/mL TGF-B1 [12]: 5730 pg/mL
- Average IP-10 Secretion, 10 ng/mL TGF-B1 [12]: 1170
- 5-Day Fold Expansion of NK cells, 10 ng/mL TGF-B1 [13]: 3.86 fold
- Average IFNg Secretion, 10 ng/mL TGF-B1 [13]: 4420 pg/mL
- Average IP-10 Secretion, 10 ng/mL TGF-B1 [13]: 1040
- 5-Day Fold Expansion of NK cells, 10 ng/mL TGF-B1 [14]: 2.94 fold
- Average IFNg Secretion, 10 ng/mL TGF-B1 [14]: 6650 pg/mL
- Average IP-10 Secretion, 10 ng/mL TGF-B1 [14]: 1340
- 5-Day Fold Expansion of NK cells, 10 ng/mL TGF-B1 [15]: 2.31 fold
- Average IFNg Secretion, 10 ng/mL TGF-B1 [15]: > 9000 pg/mL
- Average IP-10 Secretion, 10 ng/mL TGF-B1 [15]: 2180
- 5-Day Fold Expansion of NK cells, 10 ng/mL TGF-B1 [16]: 0.24 fold
- 5-Day Fold Expansion of NK cells, 10 ng/mL TGF-B1 [17]: 1.69 fold
- Average IFNg Secretion, 10 ng/mL TGF-B1 [17]: 6080 pg/mL
- Average IP-10 Secretion, 10 ng/mL TGF-B1 [17]: 1890
Substance: recombinant TGF-B1 cytokine (from UniProt P01137 279-390) (ligand)
- Average % Killing (SKOV-3), 10 ng/mL TGF-B1 [1]: 2.26%
- Average % Killing (SKOV-3), 10 ng/mL TGF-B1 [2]: 11.4%
- Average % Killing (SKOV-3), 10 ng/mL TGF-B1 [3]: 12.8%
- Average % Killing (SKOV-3), 10 ng/mL TGF-B1 [4]: 11.2%
- Average % Killing (SKOV-3), 10 ng/mL TGF-B1 [5]: 7.99%
- Average % Killing (SKOV-3), 10 ng/mL TGF-B1 [6]: 8.77%
- Average % Killing (SKOV-3), 10 ng/mL TGF-B1 [7]: 9.89%
- Average % Killing (SKOV-3), 10 ng/mL TGF-B1 [8]: 9.68%
- Average % Killing (SKOV-3), 10 ng/mL TGF-B1 [9]: 11.8%
- Average % Killing (SKOV-3), 10 ng/mL TGF-B1 [10]: 13.2%
- Average % Killing (SKOV-3), 10 ng/mL TGF-B1 [11]: 15%
- Average % Killing (SKOV-3), 10 ng/mL TGF-B1 [12]: 11.2%
- Average % Killing (SKOV-3), 10 ng/mL TGF-B1 [13]: 9.64%
- Average % Killing (SKOV-3), 10 ng/mL TGF-B1 [14]: 14.3%
- Average % Killing (SKOV-3), 10 ng/mL TGF-B1 [15]: 18.8%
- Average % Killing (SKOV-3), 10 ng/mL TGF-B1 [16]: 1.9%
- Average % Killing (SKOV-3), 10 ng/mL TGF-B1 [17]: 11.8%
